{"source": "patent US20240182897", "test_system": "T1, pegylated peptide-linked C12-miR (P.5-L-C12-miR)", "T1 sequence": "KGDGG"}
{"substance": "lysosomal enzyme Cathepsin D (Cat. No. C8696, Sigma-Aldrich)", "values": [{"measurement": "enzyme cleavage in vitro, size reduction on 15% acrylamide/8 M urea gel", "value": "the pegylated peptide-linked C12-miR (P.5-L-C12-miR) was cleaved by lysosomal cathepsin D and resulted in a smaller fragment"}]}
